Measured values as given in patent publication US20180371086A1 (Gilead, published 2018).

What was measured:
Assay in all cases: cell-based or functional assay
[1] = target: HIV-1 Env of the lab adapted HIV-1 BaL strain (HIV-1)
[2] = target: HIV-1 Env of subtype B isolate 92US657 (HIV-1)
[3] = target: HIV-1 Env of subtype B isolate 93HT593 (HIV-1)
[4] = target: HIV-1 Env of subtype B isolate 92US727 (HIV-1)
[5] = target: HIV-1 Env of subtype B isolate 92US712 (HIV-1)
[6] = target: HIV-1 Env of subtype B isolate MGRM-B-136 (HIV-1)
[7] = target: HIV-1 Env of subtype B isolate MGRM-B-132 (HIV-1)
[8] = target: HIV-1 Env of subtype B isolate MGRM-B-118 (HIV-1)
[9] = target: HIV-1 Env of subtype B isolate MGRM-B-105 (HIV-1)
[10] = target: HIV-1 Env of subtype B isolate MGRM-B-111 (HIV-1)
[11] = target: HIV-1 Env of subtype B isolate MGRM-B-112 (HIV-1)
[12] = target: HIV-1 Env of subtype B isolate MGRM-B-110 (HIV-1)
[13] = target: HIV-1 Env of subtype B isolate MGRM-B-106 (HIV-1)
[14] = target: HIV-1 Env of subtype B isolate MGRM-B-115 (HIV-1)
[15] = target: HIV-1 Env of subtype B virus 15-124906 (HIV-1)
[16] = target: HIV-1 Env of subtype B virus 15-124934 (HIV-1)
[17] = target: HIV-1 Env of subtype B virus 15-101608 (HIV-1)
[18] = target: HIV-1 Env of subtype B virus 15-124904 (HIV-1)
[19] = target: HIV-1 Env of subtype B virus 15-124987 (HIV-1)
[20] = target: HIV-1 Env of subtype B virus 15-124963 (HIV-1)
[21] = target: HIV-1 Env of subtype B virus 15-124970 (HIV-1)
[22] = target: HIV-1 Env of subtype B virus 15-124986 (HIV-1)
[23] = target: HIV-1 Env of subtype B virus 15-124964 (HIV-1)
[24] = target: HIV-1 Env of subtype B virus 15-102514 (HIV-1)
[25] = target: HIV-1 Env of subtype B virus 15-101757 (HIV-1)
[26] = target: HIV-1 Env of subtype B virus 15-124962 (HIV-1)
[27] = target: HIV-1 Env of subtype B virus 15-124950 (HIV-1)
[28] = target: HIV-1 Env of subtype B virus 15-124918 (HIV-1)
[29] = target: HIV-1 Env of subtype B virus 15-124975 (HIV-1)
[30] = target: HIV-1 Env of subtype B virus 15-124914 (HIV-1)

B1: PGT121.60 hIgG1/hLambda (antibody, V domains shown)
VH: QMQLQESGPGLVKPSETLSLTCSVSGASISDSYWSWIRRSPGKGLEWIGYVHKSGDTNYNPSLKSRVHLSLDTSKNQVSLSLTGVTAADSGKYYCARTLHGRRIYGIVAFNEWFTYFYMDVWGTGTQVTVSS
VL: SDISVAPGETARISCGEKSLGSRAVQWYQHRAGQAPSLIIYNNQDRPSGIPERFSGSPDSRPGTTATLTITSVEAGDEADYYCHIWDSRVPTKWVFGGGTTLTVLG
- Neutralization potency, IC50 [1]: 0.007 µg/mL
- Neutralization potency, IC50 [2]: 0.062 µg/mL
- Neutralization potency, IC50 [3]: 0.141 µg/mL
- Neutralization potency, IC50 [4]: 0.007 µg/mL
- Neutralization potency, IC50 [5]: 0.008 µg/mL
- Neutralization activity, IC50 [6]: 0.0071 µg/mL
- Neutralization activity, IC50 [7]: 0.0077 µg/mL
- Neutralization activity, IC50 [8]: 3.31 µg/mL
- Neutralization activity, IC50 [9]: 0.0076 µg/mL
- Neutralization activity, IC50 [10]: 0.955 µg/mL
- Neutralization activity, IC50 [11]: 0.0058 µg/mL
- Neutralization activity, IC50 [12]: 0.0113 µg/mL
- Neutralization activity, IC50 [13]: 0.001 µg/mL
- Neutralization activity, IC50 [14]: 0.141 µg/mL
- Neutralization potency, IC50 [15]: 0.0103 µg/mL
- Neutralization potency, IC50 [16]: 0.797 µg/mL
- Neutralization potency, IC50 [17]: 1.84 µg/mL
- Neutralization potency, IC50 [18]: 0.0121 µg/mL
- Neutralization potency, IC50 [19]: 0.0163 µg/mL
- Neutralization potency, IC50 [20]: 2.05 µg/mL
- Neutralization potency, IC50 [21]: 0.0285 µg/mL
- Neutralization potency, IC50 [22]: 0.0015 µg/mL
- Neutralization potency, IC50 [23]: 0.0026 µg/mL
- Neutralization potency, IC50 [24]: 0.0128 µg/mL
- Neutralization potency, IC50 [25]: 0.0132 µg/mL
- Neutralization potency, IC50 [26]: 0.0277 µg/mL
- Neutralization potency, IC50 [27]: 0.0995 µg/mL
- Neutralization potency, IC50 [28]: 0.0018 µg/mL
- Neutralization potency, IC50 [29]: 0.105 µg/mL
- Neutralization potency, IC50 [30]: 0.002 µg/mL
